According to article PMC9186069, “Borrelia miyamotoi FbpA and FbpB Are Immunomodulatory Outer Surface Lipoproteins With Distinct Structures and Functions” (Frontiers in Immunology, 2022):

B1: FbpB-C (domain or fragment)
chain: DNQYKFKLKNITDSVEQALKIAKQIKDDLDIIEFHRIKLSNHYGIRAEEHEKQTAREELSKFSKDKLEADLKKLLSEIEKSLNAATILITYNDYGGNLQSDLSAKTTLEALKTEVSSLITKIQDFNNKDHQAYPTSYYNDYQTYQALRNPYSKLTLVKDLLTRTGIVAR
B2: FbpA-C (domain or fragment)
chain: GSTGSDNRYKSYLEGVRYNVSAAIGSIDKIYNNYKLFEEQRTKMYSTRLDTVTKDQAKKEAEKFTKEELEKDLKELLNYIQVSAKTATNFVYQKEQYAKQRLDKLETEVKTLISEVQGQSHPYEAYKAIVRSKFLQMKDSLEVVKGVIDRDGPWY
notes: Made from pT7HMT-FbpA-C; also called FbpA(222-371); C-terminal truncation construct of B. miyamotoi FbpA; source: E. coli BL21 (DE3), purified (Ni column, TEV, gel filtration)

Columns and labels:
Details in all cases: both partners purified
C1r-CCP2-SP = biological target: T1, C1r-CCP2-SP (human); assay: SPR; FbpA-C, FbpB-C or FbpA DA-C immobilised by amine coupling; C1r-CCP2-SP injected, twofold dilution series 0-100 nM, multi-cycle; Biacore T200, 25°C, 30 μL/min; kinetic fits
T1 construct: source: recombinant (pT7HMT-C1r-CCP2-SP), purified by previously published protocols with a final gel filtration step
T1 sequence (A0A0U2RP97 entry or part of it): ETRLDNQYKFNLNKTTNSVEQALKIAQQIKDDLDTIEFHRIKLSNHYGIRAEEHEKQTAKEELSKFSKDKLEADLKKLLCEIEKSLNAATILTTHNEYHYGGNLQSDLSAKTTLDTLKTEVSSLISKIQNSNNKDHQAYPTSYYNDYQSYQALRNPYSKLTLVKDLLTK

active C1r = active C1r (human, UniProt P00736, activated two-chain form, cleaved between 463 and 464 (cleavage limits from UniProt chain features), heavy and light chains disulfide-linked; plasma-purified glycoprotein; native C1r forms a Ca-depend); assay: SPR; FbpA-C or FbpB-C immobilised by amine coupling; full-length C1r zymogen or active C1r injected, fivefold dilution series 0-100 nM, single cycle, final dissociation 1 hour; Biacore T200, 25°C; kinetic fits
C1r zymogen = biological target: T2, C1r zymogen (human, UniProt P00736 18-705); assay: as above
T2 construct: also called zymogen form of full-length purified C1r; zymogen C1r; source: bought: Complement Technology, Inc. (purified)
T2 sequence: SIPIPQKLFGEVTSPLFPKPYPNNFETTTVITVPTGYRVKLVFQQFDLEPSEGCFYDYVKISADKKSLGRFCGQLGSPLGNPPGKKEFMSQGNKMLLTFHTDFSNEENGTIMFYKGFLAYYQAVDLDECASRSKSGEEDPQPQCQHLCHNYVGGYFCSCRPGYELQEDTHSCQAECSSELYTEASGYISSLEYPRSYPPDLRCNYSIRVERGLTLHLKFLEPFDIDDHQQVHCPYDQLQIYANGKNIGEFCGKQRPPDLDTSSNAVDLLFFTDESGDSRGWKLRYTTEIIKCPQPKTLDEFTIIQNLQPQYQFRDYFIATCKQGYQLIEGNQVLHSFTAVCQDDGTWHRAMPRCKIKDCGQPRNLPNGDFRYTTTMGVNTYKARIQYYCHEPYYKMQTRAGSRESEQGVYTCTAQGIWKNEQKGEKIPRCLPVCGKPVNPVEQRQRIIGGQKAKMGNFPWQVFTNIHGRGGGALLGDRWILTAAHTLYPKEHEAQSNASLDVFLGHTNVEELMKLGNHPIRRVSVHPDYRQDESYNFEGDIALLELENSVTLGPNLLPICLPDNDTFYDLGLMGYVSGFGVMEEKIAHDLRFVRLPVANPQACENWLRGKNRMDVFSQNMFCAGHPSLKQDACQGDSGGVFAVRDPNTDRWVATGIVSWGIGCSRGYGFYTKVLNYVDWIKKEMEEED

Binder	Kd (C1r-CCP2-SP)	koff (C1r-CCP2-SP)	kon (C1r-CCP2-SP)	Kd (active C1r)	koff (active C1r)	kon (active C1r)	Kd (C1r zymogen)	koff (C1r zymogen)	kon (C1r zymogen)
B1	1.4 nM	0.00055 s⁻¹	390000 M⁻¹ s⁻¹	1.1 nM	7.6e-05 s⁻¹	68000 M⁻¹ s⁻¹	–	–	–
B2	–	–	–	0.39 nM	2.7e-05 s⁻¹	68000 M⁻¹ s⁻¹	0.85 nM	1.9e-05 s⁻¹	22000 M⁻¹ s⁻¹
